Test results taken from patent US20040071710A1.

Legend:
[1] = target: E2 BEVS, recombinant HCV genotype 1b E2 protein produced in insect cells using Baculovirus (hepatitis C virus genotype 1b); assay: ELISA, E2-BEVS coated at 2 µg/ml, antibody at 0.125 µg/ml
[2] = target: E2 BEVS, recombinant HCV genotype 1b E2 protein produced in insect cells using Baculovirus (hepatitis C virus genotype 1b); assay: ELISA, E2-BEVS coated at 2 µg/ml, antibody at 0.0078 µg/ml
[3] = target: E2 BEVS, recombinant HCV genotype 1b E2 protein produced in insect cells using Baculovirus (hepatitis C virus genotype 1b); assay: ELISA, E2-BEVS coated at 2 µg/ml, antibody at 0.5 µg/ml
[4] = target: HCV particles from sera of HCV infected patients (hepatitis C virus genotype 1b and 1a/1b); assay: immuno magnetic separation of virus from patient serum, RT-PCR detection
[5] = target: E2 BEVS, recombinant HCV genotype 1b E2 protein produced in insect cells using Baculovirus (hepatitis C virus genotype 1b); assay: ELISA, E2-BEVS coated at 2 µg/ml, antibody at 0.03125 µg/ml
[6] = target: E2 BEVS, recombinant HCV genotype 1b E2 protein produced in insect cells using Baculovirus (hepatitis C virus genotype 1b); assay: ELISA, E2-BEVS coated at 2 µg/ml, antibody at 1 µg/ml
[7] = target: E2 BEVS, recombinant HCV genotype 1b E2 protein produced in insect cells using Baculovirus (hepatitis C virus genotype 1b); assay: ELISA, E2-BEVS coated at 2 µg/ml, antibody at 0.0156 µg/ml
[8] = target: E2 BEVS, recombinant HCV genotype 1b E2 protein produced in insect cells using Baculovirus (hepatitis C virus genotype 1b); assay: ELISA, E2-BEVS coated at 2 µg/ml, antibody at 0.25 µg/ml
[9] = target: E2 BEVS, recombinant HCV genotype 1b E2 protein produced in insect cells using Baculovirus (hepatitis C virus genotype 1b); assay: ELISA, E2-BEVS coated at 2 µg/ml, antibody at 0.0625 µg/ml
[10] = target: E2 BEVS, recombinant HCV genotype 1b E2 protein produced in insect cells using Baculovirus (hepatitis C virus genotype 1b); assay: BIAcore 2000 (SPR)
[11] = target: E2 CHO, recombinant HCV genotype 1b E2 protein produced in mammalian CHO cells (hepatitis C virus genotype 1b); assay: BIAcore 2000 (SPR)
E2 CHO, recombinant HCV genotype 1b E2 protein produced in mammalian CHO cells (hepatitis C virus genotype 1b), sequence (P26664 384-714): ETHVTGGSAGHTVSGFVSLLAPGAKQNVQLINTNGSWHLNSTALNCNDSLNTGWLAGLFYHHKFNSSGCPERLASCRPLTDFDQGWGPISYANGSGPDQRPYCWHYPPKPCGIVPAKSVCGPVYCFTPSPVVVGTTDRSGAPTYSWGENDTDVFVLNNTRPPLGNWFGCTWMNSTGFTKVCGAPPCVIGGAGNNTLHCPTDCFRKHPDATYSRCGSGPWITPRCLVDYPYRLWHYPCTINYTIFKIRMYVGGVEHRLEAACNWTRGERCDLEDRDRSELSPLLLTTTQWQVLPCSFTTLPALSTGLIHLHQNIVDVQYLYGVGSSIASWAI

B1: HCV-AB 68 (antibody, V domains shown)
VH: QVQLVESGGGVVQPGRSLRLSCATSGFPFSSYGMHWVRQAPGKGLEWVAVISYDGSNEHSIDSVKGRFTISRDNSKNRLYLQMKSLRAEDMAVYFCVRGAHRSSWSGKRFDYWGQGTLVTVSS
VL: DIQMTQSPSTLSASIGDRVTITCRASLNILTWLAWYQQKPGKAPKLLIYEASSLESGVPSRFSGSGSGTQFTLTISSLQPDDFATYYCQQSNTPWTFGQGTKVEIKR
In the case of B1, the OD450 nm [1] is reported as 0.267 OD450 nm, the OD450 nm [2] is reported as 0.065 OD450 nm and the OD450 nm [3] is reported as 0.362 OD450 nm. The percentage of bound virus [4] was 50%, the OD450 nm [5] was 0.171 OD450 nm and the OD450 nm [6] was 0.439 OD450 nm. For the same binder, the OD450 nm [7] was 0.12 OD450 nm, the OD450 nm [8] was 0.305 OD450 nm and the OD450 nm [9] was 0.204 OD450 nm. The Kd [10] was 1700 pM and the Kd [11] was 14 pM.
